What is called Kd is the free concentration of one partner at which half of the binding sites on the other are occupied at equilibrium, for simple one-to-one binding.

Holding throughout (conditions): both partners purified
One assay has as its target T1, PDGFRα-Fc V242K (UniProt P16234-1 24-528, V242K).
T1 construct: PDGFRα (CD140a), extracellular domain, aa 24 to 528, NCBI XP_005265800; Point mutant of m1; also called V242K single mutant; source: HEK 293 F suspension cells, transiently transfected (PEI), purified from the medium with Protein A beads
Description: MST; Monolith NT.115 Pico; read-out: dose-dependent changes of MST traces (F1 over F0; MST-on time 4-5 s in Fig 7, 1.5-2.5 s in Fig 10A); 0.1 nmol/l NT-647-labelled PDGF-BB constant, PDGFRα-Fc titrated; 60% excitation power; 0.025% Tween-20, 50 mM NaCl; 25°C.

Another assay deals with T2, PDGFRα-Fc I139A + Y206A (UniProt P16234-1 24-528, I139A | Y206A).
T2 construct: PDGFRα (CD140a), extracellular domain, aa 24 to 528, NCBI XP_005265800; Double mutant of m1; also called double alanine-exchange mutant; source: HEK 293 F suspension cells, transiently transfected (PEI), purified from the medium with Protein A beads
The assay is described as follows: MST; Monolith NT.115 Pico; read-out: dose-dependent photo-bleaching (fluorescence quenching) rate in a prolonged initial fluorescence segment (5 s) before the thermophoresis segment; 0.1 nmol/l NT-647-labelled PDGF-BB constant, PDGFRα-Fc variants in 16 concentrations over 5 log steps; 60% excitation power; one site binding model; IgG elution buffer neutralised with 0.1 M Tris pH 8.0, 0.025% Tween-20, 50 mM NaCl; 25°C.

The target of another assay is T3, PDGFRα-Fc I139E + Y206S (UniProt P16234-1 24-528, I139E | Y206S).
T3 construct: PDGFRα (CD140a), extracellular domain, aa 24 to 528, NCBI XP_005265800; Double mutant of m1; also called I139E + Y206S double mutant; PDGFRα-Fc double mutant; source: HEK 293 F suspension cells, transiently transfected (PEI), purified from the medium with Protein A beads
The assay is described as follows: MST; Monolith NT.115 Pico; read-out: dose-dependent changes of MST traces (F1 over F0; MST-on time 4-5 s in Fig 7, 1.5-2.5 s in Fig 10A); 0.1 nmol/l NT-647-labelled PDGF-BB constant, PDGFRα-Fc titrated; 60% excitation power; 0.025% Tween-20, 50 mM NaCl; 25°C.

The next assay deals with T4, PDGFRα-Fc wild type (UniProt P16234-1 24-528).
T4 construct: PDGFRα (CD140a), extracellular domain, aa 24 to 528, NCBI XP_005265800; Vector pFuse-PDGFRα-ECD-hIgG1-Fc2; also called soluble PDGFRα-Fc; WT; source: HEK 293 F suspension cells, transiently transfected (PEI), purified from the medium with Protein A beads
The assay is described as follows: MST; Monolith NT.115 Pico; read-out: dose-dependent photo-bleaching (fluorescence quenching) rate in a prolonged initial fluorescence segment (5 s) before the thermophoresis segment; 0.1 nmol/l NT-647-labelled PDGF-BB constant, PDGFRα-Fc variants in 16 concentrations over 5 log steps; 60% excitation power; one site binding model; IgG elution buffer neutralised with 0.1 M Tris pH 8.0, 0.025% Tween-20, 50 mM NaCl; 25°C.

The next assay addresses T5, PDGFRα-Fc I139E (UniProt P16234-1 24-528, I139E).
T5 construct: PDGFRα (CD140a), extracellular domain, aa 24 to 528, NCBI XP_005265800; Point mutant of m1; source: HEK 293 F suspension cells, transiently transfected (PEI), purified from the medium with Protein A beads
The assay is described as above.

Another assay deals with T6, PDGFRα-Fc Y206S (UniProt P16234-1 24-528, Y206S).
T6 construct: PDGFRα (CD140a), extracellular domain, aa 24 to 528, NCBI XP_005265800; Point mutant of m1; source: HEK 293 F suspension cells, transiently transfected (PEI), purified from the medium with Protein A beads
The assay is described as above.

B1: PDGF-BB (ligand, UniProt P01127 82-190, looked up)
chain: SLGSLTIAEPAMIAECKTRTEVFEISRRLIDRTNANFLVWPPCVEVQRCSGCCNNRNVQCRPTQVQLRPVQVRKIEIVRKKPIFKKATVTLEDHLACKCETVAAARPVT
modifications: NT-647 dye on amines (amine reactive labelling kit RED-NHS) in the MST experiments; unlabelled in the signalling assays
notes: PDGF-B chain of dimeric PDGF-BB, bought recombinant protein; also called dimeric PDGF-BB; source: bought: R&D # 220-BB
For B1, the Kd in the assay with PDGFRα-Fc V242K amounted to 92 nM; in the assay with PDGFRα-Fc I139A + Y206A, 4.6 nM; in the assay with PDGFRα-Fc I139E + Y206S, 200 nM; with PDGFRα-Fc wild type, 0.14 nM; with PDGFRα-Fc I139E, 4.02 nM; with PDGFRα-Fc Y206S it was 7.32 nM.

For the origin of these results see paper PMC8031885, “Targeted mutagenesis on PDGFRα-Fc identifies amino acid modifications that allow efficient inhibition of HCMV infection while abolishing PDGF sequestration” (PLoS Pathogens, 2021).
